Measured values published in a protein production outcome set (Wang et al. 2014).

Assay: label from the status in PepcDB records

Sequence: MRIVIVGGSKFGVATAEQLIDKGHEVVLIDKNREKLEALTDRLDCGMIQGDGSSPKVLREAYAEENDVLVALTNASDDNILTALVARSVGFGRVIPQIVEAELLDVCVELDLKDTITPHVTVARSICRALEEDTELARDTNLTGDLRLLRLSVTSQLSGCSLSELDLPDECRAVAIVHEDREKFADPDAVVSEGEDILFAVHEDRVADLKALFATS
- protein production: failed

Sequence: MRIVSRDRWFETRHFYNGISLIHEPYVRPFYRCNMWHVQGRERDVLVDSGSGLVSLCEQLPWLTERPLLAVASHTHFDHIAGHHEFAERLAHPAEAEILAAPDGDNTLARAYVGDEMFEAHPECPLCYAEYRVRAAPATRLIDEGDVLDLGDRVLQVLHTPGHSPGGISLWEAATQTLFSGDIVYDGPLVEDAYHSNLDDYASSLARLRELPVRTVHGGHFASFSGERLREMIVAWFRNHDR
- protein production: failed

Sequence: MRKARGKAAKGGRAVTGDPIGDAAVLSALFANSPQGLFVFDSEQKVTRYNPAGRGVRGLPEEDVVGQGIADFVPGFEAVELQGLIDEVLATGEALRGRLVRGRAPSGPHRTLAVEVSLFPLRDLGDGKPGLVGVVEDVTE
- protein production: failed

Sequence: MRKGQETRERVVAQAAALFNVSGYAGTAISDIMAATGLEKGGIYRHFESKEQLALAAFDYAAEKVRERFAVGLAGHKHTVDTIIAFLDVFRSYAERPPLVGGCPILNTAIESDDTNPMLRERVRAVIDEWRETIRTLVQTGIARGEIRPEVDADRLALLIIATMEGAVMLARILETATPLEHAYTHLATYITQQVRLA
- protein production: not failed

Sequence: MRKLLSVIVSLMTAMAFAQQPVELPLWPDGAPNSNGLTGGEKEVSPHRLSNVTAPTITVYRAPQPNGMAVIMCPGGGYSRLAMDHEGHDMASWFCGQGITYVVLKYRMPNGHCEVPLSDAERAIRIVREHAGEWNIHPRKIGIMGASAGGHLASTLATHYSAASRPDFQILLYPVVTMTQSTHGGSRKELLGGNPTAEQEVLFSNELQVTSDTPQAFIVLSSDDGAVPPSNGVNYYLALQKNNVPASLHVYPTGGHGWGFRDNFKYKQQWTQELEKWLREGVVFPKETAPMLRIGKTYLGTKYVANTLDQGTEEKLVILPQTVDCLTFVEYTLAQAMGSSFADNLQKIRYRDGVIDGYTSRLHYTSDWIENGVRQGFLEDVTAQNSTQTTKLSLSYMSTHPQKYRQLADSPENVKRMAEHEKALSGKKVHWLPKGKLPDAGLPWIMDGDIIAITTNLPGLDVAHVGMAEYINGKLHLLHASSTLGKVVVSEEPLSQMLRNNKSWSGIRVVRMSHP
- protein production: failed

Sequence: MRKLNNHDVHKRYQDRLEEDVEFTINYELPLSCLWSTIKDFSSDFEEKTEAFFILFKELLRRGHLKLQRDGQIIGHTPEEWEQIFREVWPEYEIEPNPLPGYAPFDIGMWLTVEAPAYAVWIDPEDGSEYWAG
- protein production: not failed

Sequence: MRKMTGEEFDPLVSFFDGMAQASWLRPVHDRLKKGTGSWANRAVLDVGCGTGRLLARGVHEAAHLAGVDLSKQMVLATEERLHEHKQCGRLTVVQGDAYDLPFADESFDVCLSTCVMFLLPEPERGMKEMIRVLNGAGVIGMLNPTNKMNHAAAKAYCKKSGITGFEEKTLLQWSNVSTRRHRYTAEQLTHFFKQHGAWVVTHELVLDGLAVVTVASWNKLEHHHHHH
- protein production: not failed

Sequence: MRKNEYVNLPVICLVGPTASGKSGLAVRVCRRLYVDEHPAEIINTDSMVVYRGMDIGTATPTLREQRTVVHHLVSILDVTVPSSLVLMQTLARDAVEDCLSRGVIPVLVGGSALYTKAIIDEMSIPPTDPEVRARWQEKLDAEGPRVLHDELARRDPKAAESILPGNGRRIVRALEVIDLTGSFTATIPDGTLHWPKTVQMGLELSRKDIDQRIADRVDQMWAYGFVDEVRSLANVGLREGLTASRALGYRQVLEYLNGDYDEDEARRRTIIGTRRFARKQLMWYRRDDRIEWFNALAPDLDDRVVARVLTALTTDEED
- protein production: failed

Sequence: MRKVLSFSAFLIIGLLLSQYLPLLAGEGYATVKIVSNILLYICLSFIMINVGREFEVDKTRWRSYAGDYFIAMATAAMPWFLIAIYYVFVLLPPEFWNSWEAWKENLLLSRFAAPTSAGILFTMLAAIGLKSSWIYKKIQVLAIFDDLDTILLMIPLQIMMIGLRWQLIVVVFIVFLLLSLGWKQLGRYNWRQDWKAIMGYSVLVFVATQAVYYFSKQLYGEEGSIHIEVLLPAFVLGMIMKHKEIDTPVEHKVSTGVSFLFMFLVGMSMPHFIGVNFAETHAGTHSVTGSQEMMSWGMIALHVLIVSLLSNIGKLFPVFFYRDRKFSERLALSIGMFTRGEVGAGVIFIALGYNLGGPALVISVLTIVLNLILTGIFVLWVKKLALRSYTT
- protein production: failed

Sequence: MRKVRPEELPALLEEGVLVVDVRPADRRSTPLPFAAEWVPLEKIQKGEHGLPRRPLLLVCEKGLLSQVAALYLEAEGYEAMSLEGGLQALTQGK
- protein production: not failed

Sequence: MRLAVLADIHGNADALEAVRADLALQSPDLVVNLGDCLSGPLEVERTADLLMEANWPAVRGNHDRWLVEPEGGTVWETDARPRLSAAQRDWLAALPATRVEAGAFLCHATPGSDLIYWLHHVTPEGHVAPSPLERISRFADGITERLILCGHTHLARSVRLPDGRLVVNPGSVGCPGYEDDAPVPHRVESGTPAACYAILDSKGGDWRVTFRQIPYDHDRAARLAGRYGRPDWESVLATGWLPAQKGQGAL
- protein production: failed

Sequence: MRLDLSAKFRQVLGLAKDHASIGRAIVQNYNEKAFFDIEVAVVRATSHDDCPVDDKTMHEILFLVSNTPGSIPFLAEQISRRLAKTRDCLVAGKTLLLFHRLLRGSSRSIEQQLHIAHTSGHLQIGCSWFMMSLDSRSFVFLQNYVAYLQERVGWIINQAGKLEPVMSGGTKFSRYKEKSMDLVFHILPKCQEFIAQVLKCSPVDAWPIDNLVQAATGNILKESFQVYMTYSDGMTALVSMLFDLSRPARDLACGMLRKASQQIQDLRILYDKCRGFAGMKSLDYPSVQAISMDHIVALEECSSYGGKRGFSLSTNLRDAITCNELKQEQHSASFSSTSPFSLPVETKISMVWVVFDNEDGEESDKQTEKAYER
- protein production: failed

Sequence: MRLEKQLIKKMYYETFLMENETKPTLDVLGQAYVNEEKNEISDGSYIRFAQGEFYYRHQDFEAAIFKWEKVSNELAPWAQKNIADAYFELNQLSFAENIYTSITTDNKILMTEIRLQLLSLYIEQNNFDSAFGVIKEAVSLNPDYPNVTKIARSFYEEQQDFDSAVELAVNELIRIESYPWFEVLKGYIDKGFTKHISPDYFYDALATLNNVDQVQFTQMVSSLWNSYKNEKNYLLWLNTINEFFLHIEIHSSDIWNKVSALYEETYFALIQGQYTLRQLNDIIPNLLANWLKVVNPSYAVFPSAAVLAWDEIFPSKIDSANIEHAENLLSHSINHVNGLEYSLHLFESITQWAQKQNIEIGHRFKWLVDELADLRTNRILVTGTSGNGKTTFINSILGENILEKSISNVVVLKNDAHIEINAITDSAITTTEDVSDYHNMMSQHHQTYRDRACVEFKLPCRFLNENKLTFVVTPGFNRNNDTRDEIFEYLNSVDELLFVLNADSPFTDKERDILLSIQEHTPNLQIHFLLNKIDNIYSEAEVKRVLHDTATRINTYFPYARIFPYSSLYTSSQQLNDLTEFIHFNFNHKNIDAERTEKLLFFIRKTITYLLDKRVEKENNLVDAINWNEDMLVKLNGSINNLTTFEREKIHFITQSYRSMKTEITNDLTENIPKILKSCSNLISEESDFGHMDTELNKAMNERVHKYLEQTVLPNLALSMQNWIATSNNELLQSQTYLEELSEGLNSLFGENRIQLECDFKVLDDWRRDTDRMTTRIQMDEVNILRRFTPAQFLLKSAGKLFGVLPKNKSMLYNKYKQYVENEDYTEVTASIMKKFFLQFELFENTQERDINIFFRNPFNSLKQAVENTHLEIQEKQEILHKMKSNPEIYHDSIMLFELRLRQCEVILNIGNDNTYTDVALETSVE
- protein production: failed

Sequence: MRLFFEFTLCAALGLLVSGVILIFLLFFGKFGLIEYWIASGKPLAHAMLVLMPDGFWEGLSGIEGAAGNPHVRSFLELCMGLGQSALLLGLLLFRLVCWK
- protein production: failed

Sequence: MRLFIMEFKHLMFSKTFLFYCLLIIIFTVLNCQQVLKHPINSDVYQPQNMTMYSTDKNLIMSNEIKELKNEVHQNNFKTYQFGFLKQKKLNDQQISKIKKLISKMEKTNNFHQFKNYSNSVSHVVGWGSQYSKNNISLFGIKNMSKSKYVKEKNIIKNKEYYYGAYSRYFSDIMGVVLGILPFFLGAQMILQDKKSNAIKTIHSKSISSYQLISTRVFTILVLAYLPVLLVSIYFVTCLSMIHQISMFSLFIFYKILILWTLPTLIFTIAMGFFVTIILNSYLGVMIQIVIWFINLNIGSRAIEGCYGSLLIPRHNTLFNAVFFYNHFNQILANRFTYFGLGLLLILLSTYIFDLKRREVGFNAKIFTNRYQN
- protein production: failed

Sequence: MRLFIVQAMFTEYRPTHGYDEYFCREQSAPRADLEPLLSSLGAMGLAELNRSHASASNLLRRLGATFRLNGSGLHGGERILPFDPLPRLIHRQEWSVLERGLVQRLEAIDQFLADVYGPQRILNDGVIPREDVESSQGWRPQMQDIAVPLNRWCHISGLDLIRDGDGTWRVLEDNLRCPSGVAYFLENRRVMKRLFPSLFQGRTVQPIDDYPSHLLRTLQDLAPWSDAPRVVLLTPGVFNSAYFEHSYLAQQMGIALVEGRDLICEDGRVWMRSTAGREPVDVIYRRIDDDFLDPNVFRRDSMLGVPGLIDAMRSGRVAIANAPGSGVADDKLIYAYVPAMIRYYLNEEPIIDNVPTYLCSRDDDRRYVLEHLNELVVKSVAEAGGYGMLIGPHASSEEIESFAVKIKAHPRNFIAQPTLQLSTVPSLSEGELYPCHVDLRPYVLRGKSDWVSPGGLTRVALKRGSLVVNSSQGGGCKDTWVVSDSAVTAGNQELVPC
- protein production: failed

Sequence: MRLGRIASPDGVAFVSIEGELDNPAEMIAREIAEHPFGTPNFTGRSWPLADVRLLAPILASKVVCVGKNYADHIAEMGEATGPVPADPVIFLKPNTAIIGPNVPIRLPANASPVHFEGELAVVIGRPCKDVSAAQAAENILGYTIGNDVSARDQQRSDGQWTRAKGHDTFCPVGPWIVTDLNPLDPGDLELRTEVNGEVKQRSRTSLLIHDIGSIVEWISAVMTLLPGDLILTGTPAGVGPIEDGDTVSITIEGIGTLTNPVVRKGKS
- protein production: failed

Sequence: MRLIERYLFRQLLGPTLLATAALVALALLARSLSEFDVLVEQRQSALVFLKIILLALPQLLGIMMPLALFVAALVALNRLHTEQEIVVCFAGGMSRWRVISPAMRLAVIAALISLISGLWLQPWSARQIRETAFQIKTDVAATLVQPGQFTEPGPGLTVYAQSIDRDNKIQNLFIHQELPNGAASTYSSREAEIATRKGEPVLIMRHGSNQQFSRDGVLQYTSFDEYTFDLSSLFHSDELLHYKIADRYPHELFFPDLTQEWEQRNKDKLLAEGHSRFAGPLYNIALMSMALAAVLGGSFSRMGYGKRIAAVGAAAAIVRIVGFGVQAACEDDPWLNVLQYIVPLAATAWAMSQIFRQRVSPRRKTKPATPAPAFSGAA
- protein production: failed

Sequence: MRLITHNMLSCNIKGVTSGFPLRIEAGNVIEKEVDFNPDFIRHMFAKIEWKALVEGARSMGYAELPEESPDAAVLKSDEPFLKKLHHALLELHLEEGALVCPETGRKFPVNKGIPNMLLHEDEV
- protein production: failed

Sequence: MRLNGDVGWLWDWLAAAGLEPRALGEAAVLCALKRRLDAAGCTAAAYPARLAADAEERARLLDAVLVPETWFFREPPAFEALAESAARHRLQRRSVPFHVLSLGCSTGEEPWSIVIALREAGMRKGDFRVEALDISARAIEAARAGIYGGRSFRSPGDGTWRSRYFDELGDGRYRVKDGLRGDVEYRVAHLGDPGWGGGRRYQAVFCRNVLIYLRAELRARIMDQCRDALDPGGLLVLGHADGIGGPDRGFRRHGVAGAFSWIRRDAAEAEPPPARSSRPLAAKAVRRDAPGEAKPSGPDLLSGGRETGRAAPFDEGAVLGTARALADGGNYQAAERLCQSHLASHPHDPEVHALLGIVMSAANRDDEALRYFRQALYLAPSHNESLLHLAALYERRGDEERARHFRNRSAAAEGEP
- protein production: failed
